Measurements published in publication doi:10.1101/671156, “Oncoprotein CoAA repeats interact with RNA polymerase II CTD repeats” (bioRxiv, 2019).
Square brackets hold non-standard residues; d marks the D form. Ends that are not written are not given here. * marks the point of attachment. Biotin = O=C1N[C@H]2[C@H](CS[C@H]2CCCCC(=O)*)N1; Ahx = NCCCCCC(=O)O

T1: GST-YxxQ (307-545), recombinant CoAA YxxQ repeats (human, UniProt Q96PK6 307-545)
T1 construct: CoAA (RBM14) YxxQ repeats, residues 307-545; also called YxxQ repeats (307-545); recombinant GST fusion CoAA YxxQ repeats; source: recombinant GST fusion protein
T1 sequence (looked up): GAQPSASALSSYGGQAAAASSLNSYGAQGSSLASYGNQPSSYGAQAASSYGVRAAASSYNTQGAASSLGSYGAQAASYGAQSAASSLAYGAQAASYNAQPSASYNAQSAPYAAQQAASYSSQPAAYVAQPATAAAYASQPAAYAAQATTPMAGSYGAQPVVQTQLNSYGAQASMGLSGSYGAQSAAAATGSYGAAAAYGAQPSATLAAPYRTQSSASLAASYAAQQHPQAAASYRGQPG

T2: GST-YxxQ (307-545), recombinant CoAA YxxQ repeats (human, UniProt Q96PK6 307-545)
T2 chain: T1 sequence (looked up)

B1: biotin-labeled IERM diheptad peptide (peptide)
peptide: Biotin-KK[Ahx]TIERMGSGVERMGPA
notes: two lysine residues inserted between biotin and the C6 spacer: [Biotin]-KK-C6-peptide; diheptad of the IERM repeats of hnRNP M; also called IERM peptide; source: synthetic peptide
B2: biotin-labeled unphosphorylated CTD diheptad peptide (peptide)
peptide: KKSYSPTSPSYSPTSPS
modifications: biotin on the N-terminus; C6 spacer (aminocaproic acid) between KK and the peptide
notes: two lysine residues inserted between biotin and the C6 spacer: [Biotin]-KK-C6-peptide; diheptad of the CTD heptad repeats (YSPTSPS) of the RNAP II largest subunit; also called CTD peptide; unphosphorylated CTD peptide; source: synthetic peptide
B3: non-labeled IERM diheptad peptide (peptide)
peptide: TIERMGSGVERMGPA
notes: diheptad of the IERM repeats of hnRNP M, without biotin label; also called nonlabeled IERM peptide; IERM peptide; source: synthetic peptide
B4: biotin-labeled Ser5-phosphorylated CTD diheptad peptide (peptide)
peptide: KKSYSPTSPSYSPTSPS
modifications: phosphoserine at Ser5 of each heptad (SYSPTpSPSYSPTpSPS); biotin on the N-terminus; C6 spacer (aminocaproic acid) between KK and the peptide
notes: two lysine residues inserted between biotin and the C6 spacer: [Biotin]-KK-C6-peptide; diheptad of the CTD heptad repeats of the RNAP II largest subunit, printed as SYSPTpSPSYSPTpSPS; also called pSer5 CTD; source: synthetic peptide
B5: biotin-labeled Ser2-phosphorylated CTD diheptad peptide (peptide)
peptide: KKSYSPTSPSYSPTSPS
modifications: phosphoserine at Ser2 of each heptad (SYpSPTSPSYpSPTSPS); biotin on the N-terminus; C6 spacer (aminocaproic acid) between KK and the peptide
notes: two lysine residues inserted between biotin and the C6 spacer: [Biotin]-KK-C6-peptide; diheptad of the CTD heptad repeats of the RNAP II largest subunit, printed as SYpSPTSPSYpSPTSPS; also called pSer2 CTD; source: synthetic peptide

Key:
[1] = biological target: T1, GST-YxxQ (307-545), recombinant CoAA …; experiment: ELISA; GST-YxxQ or GST-AxxQ (307-545) coated at 500 ng/well on 96-well plate with BSA; biotin-labeled diheptad peptides at 6.4-20000 ng/ml overnight; streptavidin-HRP, luminescence; EC50 by sigmoidal non-linear curve fit; settings: both partners purified
[2] = biological target: T1, GST-YxxQ (307-545), recombinant CoAA …; experiment: ELISA; competition: GST-YxxQ coated; non-labeled IERM peptide at 12.8-40000 ng/ml against a constant concentration of biotin-labeled CTD peptides; streptavidin-HRP; settings: both partners purified
[3] = biological target: T2, GST-YxxQ (307-545), recombinant CoAA …; experiment: ELISA; competition with biotin-labeled pSer5 CTD peptide

Binder | EC50 [1] [nM] | binding result [2] | IC50 [3] [nM]
B1 | 83 |  | 
B2 | 1070 |  | 
B3 |  | binds | 106
B4 | 101 |  | 
B5 | 135 |  | 
